B1: 2H10 IgG2 VH M93V/VL C33S (antibody, V domains shown)
VH: QVQLVESGGGVVQPGRSLRLSCAASGFTFSRHGMHWVRQAPGKGLEWVAVVWFDGSNIYYADSVKGRFTISRDNSKNTLYLQMNSLRAEDTAVYYCARDSRIAAADYWGQGTLVTVSS
VL: SYELTQPPSVSVSPGQTVSITCSGDKLGDKYVSWYQQKPGQSPVLVIYQESKRPSGIPERFSGSSSGNTATLTISGTQAMDEADYYCQTWDSSLVVFGGGTKLTVL
notes: IgG2
B2: 2H10 IgG2 VH wt/VL C33A (antibody, V domains shown)
VH: QVQLVESGGGVVQPGRSLRLSCAASGFTFSRHGMHWVRQAPGKGLEWVAVVWFDGSNIYYADSVKGRFTISRDNSKNTLYLQMNSLRAEDTAMYYCARDSRIAAADYWGQGTLVTVSS
VL: SYELTQPPSVSVSPGQTVSITCSGDKLGDKYVAWYQQKPGQSPVLVIYQESKRPSGIPERFSGSSSGNTATLTISGTQAMDEADYYCQTWDSSLVVFGGGTKLTVL
notes: IgG2
B3: 2H10 IgG2 VH wt/VL C33D (antibody, V domains shown)
VH: QVQLVESGGGVVQPGRSLRLSCAASGFTFSRHGMHWVRQAPGKGLEWVAVVWFDGSNIYYADSVKGRFTISRDNSKNTLYLQMNSLRAEDTAMYYCARDSRIAAADYWGQGTLVTVSS
VL: SYELTQPPSVSVSPGQTVSITCSGDKLGDKYVDWYQQKPGQSPVLVIYQESKRPSGIPERFSGSSSGNTATLTISGTQAMDEADYYCQTWDSSLVVFGGGTKLTVL
notes: IgG2
B4: 2H10 IgG2 VH wt/VL C33R (antibody, V domains shown)
VH: QVQLVESGGGVVQPGRSLRLSCAASGFTFSRHGMHWVRQAPGKGLEWVAVVWFDGSNIYYADSVKGRFTISRDNSKNTLYLQMNSLRAEDTAMYYCARDSRIAAADYWGQGTLVTVSS
VL: SYELTQPPSVSVSPGQTVSITCSGDKLGDKYVRWYQQKPGQSPVLVIYQESKRPSGIPERFSGSSSGNTATLTISGTQAMDEADYYCQTWDSSLVVFGGGTKLTVL
notes: IgG2
B5: 2H10 IgG2 VH M93V/VL wt (antibody, V domains shown)
VH: QVQLVESGGGVVQPGRSLRLSCAASGFTFSRHGMHWVRQAPGKGLEWVAVVWFDGSNIYYADSVKGRFTISRDNSKNTLYLQMNSLRAEDTAVYYCARDSRIAAADYWGQGTLVTVSS
VL: SYELTQPPSVSVSPGQTVSITCSGDKLGDKYVCWYQQKPGQSPVLVIYQESKRPSGIPERFSGSSSGNTATLTISGTQAMDEADYYCQTWDSSLVVFGGGTKLTVL
notes: IgG2
B6: 2H10 IgG2 VH wt/VL C33G (antibody, V domains shown)
VH: QVQLVESGGGVVQPGRSLRLSCAASGFTFSRHGMHWVRQAPGKGLEWVAVVWFDGSNIYYADSVKGRFTISRDNSKNTLYLQMNSLRAEDTAMYYCARDSRIAAADYWGQGTLVTVSS
VL: SYELTQPPSVSVSPGQTVSITCSGDKLGDKYVGWYQQKPGQSPVLVIYQESKRPSGIPERFSGSSSGNTATLTISGTQAMDEADYYCQTWDSSLVVFGGGTKLTVL
notes: IgG2
B7: 9G8 IgG2 VH wt/VL C33A (antibody, V domains shown)
VH: QLQLQESGPGLVKPSETLSLSCTVSGGSISSSSSYWGLIRQPPGKGLEWIGSIYYSGSTYYSPSLKSRVSISVDTSKNQFSLKLSSVTAADTAVYFCARQGYGGHPDVFDIWGQGTMVTVSS
VL: SSELTQSPSVSVSPGQTARITCSGDKLGDVYVAWYQQKTGQSPVLVIYEDTKRPSGIPERFSGSNSGNTATLTISGTQVMDEADYYCQAWDSTTAVIFGGGTKLTVL
notes: IgG2
B8: 9G8 IgG2 VH wt/VL C33D (antibody, V domains shown)
VH: QLQLQESGPGLVKPSETLSLSCTVSGGSISSSSSYWGLIRQPPGKGLEWIGSIYYSGSTYYSPSLKSRVSISVDTSKNQFSLKLSSVTAADTAVYFCARQGYGGHPDVFDIWGQGTMVTVSS
VL: SSELTQSPSVSVSPGQTARITCSGDKLGDVYVDWYQQKTGQSPVLVIYEDTKRPSGIPERFSGSNSGNTATLTISGTQVMDEADYYCQAWDSTTAVIFGGGTKLTVL
notes: IgG2
B9: 9G8 IgG2 VH wt/VL C33Y (antibody, V domains shown)
VH: QLQLQESGPGLVKPSETLSLSCTVSGGSISSSSSYWGLIRQPPGKGLEWIGSIYYSGSTYYSPSLKSRVSISVDTSKNQFSLKLSSVTAADTAVYFCARQGYGGHPDVFDIWGQGTMVTVSS
VL: SSELTQSPSVSVSPGQTARITCSGDKLGDVYVYWYQQKTGQSPVLVIYEDTKRPSGIPERFSGSNSGNTATLTISGTQVMDEADYYCQAWDSTTAVIFGGGTKLTVL
notes: IgG2
B10: 9G8 IgG2 VH wt/VL C33R (antibody, V domains shown)
VH: QLQLQESGPGLVKPSETLSLSCTVSGGSISSSSSYWGLIRQPPGKGLEWIGSIYYSGSTYYSPSLKSRVSISVDTSKNQFSLKLSSVTAADTAVYFCARQGYGGHPDVFDIWGQGTMVTVSS
VL: SSELTQSPSVSVSPGQTARITCSGDKLGDVYVRWYQQKTGQSPVLVIYEDTKRPSGIPERFSGSNSGNTATLTISGTQVMDEADYYCQAWDSTTAVIFGGGTKLTVL
notes: IgG2
B11: 9G8 IgG2 VH wt/VL C33G (antibody, V domains shown)
VH: QLQLQESGPGLVKPSETLSLSCTVSGGSISSSSSYWGLIRQPPGKGLEWIGSIYYSGSTYYSPSLKSRVSISVDTSKNQFSLKLSSVTAADTAVYFCARQGYGGHPDVFDIWGQGTMVTVSS
VL: SSELTQSPSVSVSPGQTARITCSGDKLGDVYVGWYQQKTGQSPVLVIYEDTKRPSGIPERFSGSNSGNTATLTISGTQVMDEADYYCQAWDSTTAVIFGGGTKLTVL
notes: IgG2

A word on the IC50: it is the point on the concentration scale where inhibition reaches its midpoint. Read a low IC50 as greater potency in that assay.

The assay deals with T1, full length human DLL4 (human, UniProt Q9NR61 27-685).
T1 construct: whole, on cells; also called native DLL4 expressed in HEK293 cells
T1 sequence (Q9NR61 27-685): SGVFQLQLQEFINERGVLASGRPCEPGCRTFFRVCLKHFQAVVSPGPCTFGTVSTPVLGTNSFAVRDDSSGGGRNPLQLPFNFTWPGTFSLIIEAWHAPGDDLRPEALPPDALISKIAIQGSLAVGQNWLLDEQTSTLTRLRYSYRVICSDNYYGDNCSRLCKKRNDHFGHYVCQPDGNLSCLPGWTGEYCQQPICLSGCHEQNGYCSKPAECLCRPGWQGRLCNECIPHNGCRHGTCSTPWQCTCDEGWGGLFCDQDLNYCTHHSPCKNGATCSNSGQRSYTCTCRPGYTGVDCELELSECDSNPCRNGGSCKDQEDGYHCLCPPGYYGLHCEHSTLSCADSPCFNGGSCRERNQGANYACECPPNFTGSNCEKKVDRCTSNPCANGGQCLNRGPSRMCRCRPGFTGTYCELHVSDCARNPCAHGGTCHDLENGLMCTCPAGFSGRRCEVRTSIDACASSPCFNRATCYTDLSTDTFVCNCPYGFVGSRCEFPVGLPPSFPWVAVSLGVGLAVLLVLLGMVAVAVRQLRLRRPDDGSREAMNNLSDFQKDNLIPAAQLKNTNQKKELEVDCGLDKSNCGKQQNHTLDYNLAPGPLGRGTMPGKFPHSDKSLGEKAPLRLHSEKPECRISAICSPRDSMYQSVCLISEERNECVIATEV
The assay can be described thus: FACS competition vs Notch1/Fc, HEK293 cells with human DLL4. As to the method:
Further experiments were performed on selected antibodies using HEK293 cells that were stably transfected with either human, mouse or cynomolgus monkey DLL4 using retroviral constructs. In these experiments, anti-DLL4 antibodies (final concentration: 10-0.01 μg/ml) diluted in PBS containing 2% FCS were added to DLL4-expressing HEK 293 cells (50000 cells/well diluted in PBS containing 2% FCS) and incubated for 1 h at 4° C. Subsequently, Alexa-647 labeled human, rat or APC labeled mouse Notch1/Fc (e.g. R&D Systems, catalog #3647-TK-050, 1057-TK-050, 5267-TK-050, respectively) was added at a final concentration of 0.01-0.5 μg/ml and plates were incubated for a further 2 h at 4° C. prior to washing and reading on a FACSCalibur instrument.
The activity of the mutated antibodies was assessed in two ways: firstly, the ability of the antibodies to block the binding of soluble Notch1/Fc to full length human DLL4 stably expressed in HEK293 cells as described in Example 3 was determined and, secondly, the binding of the antibodies to the same cell line used in the receptor-ligand competition studies was determined. For the binding studies, HEK293 cells stably overexpressing human DLL4 were resuspended in PBS containing 2% FCS at a concentration of 50,000 cells/well and incubated with titrations of antibody (final concentrations 0.01-10 μg/ml) for 1 h at 4° C. The cells were then washed and incubated with 0.31 μg/ml anti-human IgG-Fc-FITC (BD Pharmingen, cat#555786) for 30 minutes at 4° C. Bound […] was detected using FACS analysis. Results of these studies are summarized in Table 23, which show the effects of specific mutations to sequences of 9G8 and 2H10 on the ability of the antibodies to compete with Notch1 for binding to human DLL4 or to bind to human DLL4 relative to unmutated antibodies.
Molecule B1 registered an IC50 of 0.138 µg/mL.
B2 came in with an IC50 of 0.174 µg/mL. The IC50 values of the last two molecules are within 1.5-fold of each other.
Then B3, with 0.178 µg/mL; and B4, with 2.97 µg/mL.
Regarding B5, the IC50 is 0.264 µg/mL.
As for B6, the IC50 was 0.314 µg/mL.
For the molecule B7, the IC50 was 0.302 µg/mL.
In turn, B8 showed an IC50 of 0.345 µg/mL.
For B9 the value was 0.32 µg/mL; for B10, 0.201 µg/mL; for B11, 0.358 µg/mL.

Values taken from US20100196385A1 (AstraZeneca / MedImmune, published 2010).
